Numbering of substitutions follows the chain as printed.
Columns and labels:
xenograft tumor models = conditions: Hoey et al., 2009; U.S. Pat. No. 7,750,124; cited from earlier work
VEGF and DLL4 = VEGF and DLL4 (Homo sapiens, UniProt P15692+Q9NR61); assay: Bispecific antibody ELISA; format: binding; set-up: purchased ATGEN, South Korea
Procedure: FIG. 7. Bispecific antibody ELISA. Bispecific antibodies 219R45-MB-21M18, 219R45-MB-21R79, 219R45-MB-21R75, and 219R45-MB-21R83 were diluted in blocking buffer (1× PBS, 0.1% gelatin, 0.1% Polysorbate-20, pH 7.4) containing 2 μg/ml biotin-DLL4-hFc. The antibodies were serially diluted 3-fold from 500 ng/ml to 0.008 ng/ml. The antibody samples were incubated for 2 hours in blocking buffer containing the biotin-DLL4-hFc. After incubation, the antibody samples were transferred to a VEGF-coated assay plate (100 ul/well) and incubated for 2 hours. Streptavidin-HRP was added to each well and incubated for 1 hr. TMB substrate was added to the wells with a 10 minute color development and the reaction was stopped with 2M sulfuric acid. Absorbance was read at 450-650 nm and the data analyzed using the 4-parameter fit within the Softmax Pro analysis program.
VEGF (ATGEN, South Korea) was coated onto Nunc maxisorb plates at 2 ug/ml (100 μl/well) and incubated overnight at 2-8° C. Bispecific antibodies 219R45-MB-21M18, 219R45-MB-21R79, 219R45-MB-21R75, and 219R45-MB-21R83 were diluted in blocking buffer (1× PBS, 0.1% gelatin, 0.1% Polysorbate-20, pH 7.4) containing 2 μg/ml biotin-DLL4-hFc. […] Absorbance was read at 450-650 nm and the data analyzed using the 4-parameter fit within the Softmax Pro analysis program (Molecular Devices, Sunnyvale, Calif.).

OMP-C8 colon tumor = OMP-C8 colon tumor growth in vivo; set-up: species or system NOD/SCID mice
Procedure: FIGS. 11A and 11B. Inhibition of colon tumor growth in vivo by anti-VEGF/anti-DLL4 bispecific antibodies. OMP-C8 colon tumor cells were injected subcutaneously into NOD/SCID mice. Mice were treated with control antibody (-▪-), anti-VEGF antibody bevacizumab (-▴-), or anti-VEGF/anti-DLL4 bispecific antibodies 219R45-MB-21M18 (-⋄-), 219R45-MB-21R75 (-●-), 219R45-MB-21R79 (-∘-), or 219R45-MB-21R83 (-▾-). Mice were treated with antibodies as single agents (FIG. 11A) or in combination with irinotecan (FIG. 11B). Antibodies were administered intraperitoneally at a dose of 15 mg/kg once a week and irinotecan at a dose of 7.5 mg/kg one a week. Data are shown as tumor volume (mm^3) over days post-treatment.
Single cell suspensions of OMP-C8 colon tumor xenografts (50,000 cells) were injected subcutaneously into the flanks of 6-8 week old NOD/SCID mice. Tumors were allowed to grow for 21 days until they reached an average volume of 80 mm^3. The mice were randomized (n=8 per group) and treated with anti-DLL4 antibody 21M18, anti-VEGF antibody bevacizumab, anti-VEGF/anti-DLL4 bispecific antibodies 219R45-MB-21M18, 219R45-MB-21R75, 219R45-MB-21R79, 219R45-MB-21R83, or control antibody, either alone or in combination with irinotecan. Antibodies and irinotecan were dosed weekly by injection into the intraperitoneal cavity. Bevacizumab and bispecific antibodies 219R45-MB-21M18, 219R45-MB-21R75, 219R45-MB-21R79, and 219R45-MB-21R83 were dosed at 15 mg/kg, and irinotecan was dosed at 7.5 mg/kg. Tumor growth was monitored and tumor volumes were measured with electronic calipers at the indicated time points. Data are expressed as mean±S.E.M.
Following the treatment phase, tumor sections were prepared and analyzed by hematoxylin and eosin (H&E) staining. […] This is characteristic of highly necrotic tumor tissue.

B1: 21M18: anti-DLL4 antibody, parental antibody (Hoey et al., 2009; U.S. Pat. No. 7,750,124) (antibody, V domains shown)
VH: QVQLVQSGAEVKKPGASVKISCKASGYSFTAYYIHWVKQAPGQGLEWIGYISSYNGATNYNQKFKGRVTFTTDTSTSTAYMELRSLRSDDTAVYYCARDYDYDVGMDYWGQGTLVTVSS
VL: DIVMTQSPDSLAVSLGERATISCRASESVDNYGISFMKWFQQKPGQPPKLLIYAASNQGSGVPDRFSGSGSGTDFTLTISSLQAEDVAVYYCQQSKEVPWTFGGGTKVEIK
For B1, the “frequency of cancer stem cells in xenograft tumor models” value (xenograft tumor models) is given as “reduce the frequency of cancer stem cells” and the “tumor growth in xenograft tumor models” value (xenograft tumor models) is given as “inhibit tumor growth”.

B2: 219R45-MB-21R79: anti-VEGF/anti-DLL4 monovalent/bispecific antibody, heavy chains SEQ ID NO:7 and 6, light chains SEQ ID NO:8 (antibody)
heavy 1: QVQLVQSGAEVKKPGASVKVSCKASGYTFTNYWMHWVRQAPGQGLEWMGDINPSNGRTSYKEKFKRRVTLSVDKSSSTAYMELSSLRSEDTAVYFCTIHYDDKYYPLMDYWGQGTLVTVSSASTKGPSVFPLAPCSRSTSESTAALGCLVKDYFPEPVTVSWNSGALTSGVHTFPAVLQSSGLYSLSSVVTVPSSNFGTQTYTCNVDHKPSNTKVDKTVERKCCVECPPCPAPPVAGPSVFLFPPKPKDTLMISRTPEVTCVVVDVSHEDPEVQFNWYVDGVEVHNAKTKPREEQFNSTFRVVSVLTVVHQDWLNGKEYKCKVSNKGLPAPIEKTISKTKGQPREPQVYTLPPSREKMTKNQVSLTCLVKGFYPSDIAVEWESNGQPENNYKTTPPMLKSDGSFFLYSKLTVDKSRWQQGNVFSCSVMHEALHNHYTQKSLSLSPGK
heavy 2: QVQLVQSGAEVKKPGASVKISCKASGYSFTAYYIHWVKQAPGQGLEWIGYIANYNRATNYNQKFKGRVTFTTDTSTSTAYMELRSLRSDDTAVYYCARDYDYDVGMDYWGQGTLVTVSSASTKGPSVFPLAPCSRSTSESTAALGCLVKDYFPEPVTVSWNSGALTSGVHTFPAVLQSSGLYSLSSVVTVPSSNFGTQTYTCNVDHKPSNTKVDKTVERKCCVECPPCPAPPVAGPSVFLFPPKPKDTLMISRTPEVTCVVVDVSHEDPEVQFNWYVDGVEVHNAKTKPREEQFNSTFRVVSVLTVVHQDWLNGKEYKCKVSNKGLPAPIEKTISKTKGQPREPQVYTLPPSREEMTKNQVSLTCLVEGFYPSDIAVEWESNGQPENNYKTTPPMLDSDGSFFLYSELTVDKSRWQQGNVFSCSVMHEALHNHYTQKSLSLSPGK
light: DIVMTQSPDSLAVSLGERATISCRASESVDNYGISFMKWFQQKPGQPPKLLIYAASNQGSGVPDRFSGSGSGTDFTLTISSLQAEDVAVYYCQQSKEVPWTFGGGTKVEIKRTVAAPSVIFPPSDEQLKSGTASVVCLLNNFYPREAKVQWKVDNALQSGNSQESVTEQDSKDSTYSLSSTLTLSKADYEKHKVYACEVTHQGLSSPVTKSFNRGEC
modifications: 21R79 Heavy chain without predicted signal sequence; Light chain without predicted signal sequence
In the case of B2, the “more potent than 219R45-MB-21M18 in bispecific ELISA” value (VEGF and DLL4) is reported as “about 7 fold”.

B3: 219R45-MB-21M18: anti-VEGF/anti-DLL4 monovalent/bispecific antibody, heavy chains SEQ ID NO:7 and 5, light chains SEQ ID NO:8 (antibody)
heavy 1: B2 heavy 1
heavy 2: B2 heavy 2 with A52S, N53S, R56G
light: B2 light
modifications: 21R79 Heavy chain without predicted signal sequence; 21M18 Heavy chain without predicted signal sequence; Light chain without predicted signal sequence
With B3 the “inhibition of tumor growth in combination with irinotecan” value (OMP-C8 colon tumor; antibody 15 mg/kg, irinotecan 7.5 mg/kg weekly ip) was “greatest inhibition of tumor growth” and the “H&E staining of tumor sections after treatment” value (OMP-C8 colon tumor; in combination with irinotecan) was “dark pink staining regions providing evidence of extensive calcification”.

Reference: US11512128B2, “VEGF/DLL4 binding agents and uses thereof” (MEREO BIOPHARMA 5, INC., priority 2011, dated 2022)
